We go through 2 molecules from US20060183678A1 (Novartis, published 2006).

The target of assay [1] is T1, human NiG (human, UniProt Q9NQC3 186-1004).
T1 construct: Expressed in E. coli from pET28a-hNiG; also called hNiG; recombinant human NIG; not shown: N-terminal His- and T7-tag from pET28a
T1 sequence: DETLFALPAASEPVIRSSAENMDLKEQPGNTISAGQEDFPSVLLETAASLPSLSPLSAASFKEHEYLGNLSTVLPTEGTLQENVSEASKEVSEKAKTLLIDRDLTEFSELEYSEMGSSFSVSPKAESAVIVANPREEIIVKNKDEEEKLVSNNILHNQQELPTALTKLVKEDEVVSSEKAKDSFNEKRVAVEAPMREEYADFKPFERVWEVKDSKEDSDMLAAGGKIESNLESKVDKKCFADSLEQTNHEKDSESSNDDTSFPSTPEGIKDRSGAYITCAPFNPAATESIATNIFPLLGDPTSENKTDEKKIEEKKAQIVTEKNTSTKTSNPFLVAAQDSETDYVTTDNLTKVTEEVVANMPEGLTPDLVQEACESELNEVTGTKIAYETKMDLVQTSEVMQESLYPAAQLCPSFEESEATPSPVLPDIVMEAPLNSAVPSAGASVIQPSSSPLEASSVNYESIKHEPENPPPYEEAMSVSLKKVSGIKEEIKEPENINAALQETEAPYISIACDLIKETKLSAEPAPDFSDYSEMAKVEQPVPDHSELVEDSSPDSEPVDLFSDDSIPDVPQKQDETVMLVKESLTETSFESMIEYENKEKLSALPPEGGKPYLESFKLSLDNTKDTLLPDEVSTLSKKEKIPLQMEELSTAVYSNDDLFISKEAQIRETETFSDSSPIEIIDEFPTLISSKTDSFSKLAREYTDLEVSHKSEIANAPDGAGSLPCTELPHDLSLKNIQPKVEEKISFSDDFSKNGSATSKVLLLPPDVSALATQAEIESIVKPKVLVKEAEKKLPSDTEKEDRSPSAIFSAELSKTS
Nature of the assay: SPR (BIAcore 2000), NiG amine-coupled on CM5 chip, antibody injected. The method, then: (§1) The affinity of the mouse 11C7 mAb and of the 11C7 Fab are measured by surface plasmon resonance (SPR) using a BIAcore 2000 optical biosensor (Biacore, Uppsala, Sweden) according to the manufacture's instructions (see FIG. 2). Recombinant human, mouse, and rat NIG are covalently attached to three separate flow cells of a CM5 sensor chip using amine-coupling chemistry. Briefly; the carboxymethlyladed dextran matrix is activated by injecting 35 ul of a solution containing 0.025M NHS and 0.1M EDC. […] The deactivation of the remaining NHS-ester group is performed by injection of 35 ul of 1M ethanolamine hydrochloride (pH 8.5). The surface of the sensor chip is regenerated by injecting 5 ul 0.1M HCl. […] After each injection the sensor chip surface is regenerated with the injection of 10 ul 0.1M HCl without loss of binding activity on the surface. The kinetic constants, ka and kd and the affinity constants KA and KD are evaluated using the BIAevaluations 3.0 software supplied by the manufacturer.
(§2) Affinity measurement in BIAcore: The kinietc and the affinity binding constants of the mouse 11C7 mAb and the 11C7 derived monovalent Fab fragment to recombinat NogoA are measured in real time using surface plasmon resonance (SPR) technology (Biacore). For this analysis recombinant human, mouse and rat NIGs are coupled on three independent sensor chip surfaces and different concentrations of the antibodies are injected. Kinetic parameters of the binding interactions are derived from the sensorgrams by non-linear curve fitting. […] The lower affinity of the Fab fragment results from a decrease of both kinetic constants, association and dissociation (ka, kd).
On the technique in general: Surface plasmon resonance follows binding to a sensor surface in real time, without labels.

The target in assay [2] is T2, rat NiG (rat, UniProt Q9JK11 174-979).
T2 construct: also called recombinant rat NIG
T2 sequence: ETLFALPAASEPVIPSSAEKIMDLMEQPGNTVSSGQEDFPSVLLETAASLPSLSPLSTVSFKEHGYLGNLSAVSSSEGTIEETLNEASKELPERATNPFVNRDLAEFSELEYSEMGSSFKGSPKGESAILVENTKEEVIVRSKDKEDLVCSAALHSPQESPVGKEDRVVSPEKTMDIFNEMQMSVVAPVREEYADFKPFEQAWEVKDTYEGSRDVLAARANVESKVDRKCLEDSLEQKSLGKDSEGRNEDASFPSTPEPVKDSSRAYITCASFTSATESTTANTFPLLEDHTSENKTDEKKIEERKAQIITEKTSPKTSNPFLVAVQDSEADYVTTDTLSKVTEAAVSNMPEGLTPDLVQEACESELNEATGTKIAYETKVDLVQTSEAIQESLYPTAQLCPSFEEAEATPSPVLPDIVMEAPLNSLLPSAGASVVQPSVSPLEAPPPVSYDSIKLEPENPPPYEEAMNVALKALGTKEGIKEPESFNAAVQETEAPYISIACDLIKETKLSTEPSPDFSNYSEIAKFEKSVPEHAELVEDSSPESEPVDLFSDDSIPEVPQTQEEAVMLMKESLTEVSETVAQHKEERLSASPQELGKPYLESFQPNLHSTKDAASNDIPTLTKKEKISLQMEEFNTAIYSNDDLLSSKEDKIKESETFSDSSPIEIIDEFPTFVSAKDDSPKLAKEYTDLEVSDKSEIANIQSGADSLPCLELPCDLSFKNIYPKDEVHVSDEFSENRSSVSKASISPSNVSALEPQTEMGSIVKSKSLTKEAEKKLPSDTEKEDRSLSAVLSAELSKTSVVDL
The assay is described as above. On the procedure: as §1, §2

Assay [3] has as its target T3, mouse NiG (mouse, UniProt Q99P72 188-974, limits assumed).
T3 construct: domain: NiG-exon3; also called mNiG-exon3; mouse NiG-exon3
T3 sequence (looked up): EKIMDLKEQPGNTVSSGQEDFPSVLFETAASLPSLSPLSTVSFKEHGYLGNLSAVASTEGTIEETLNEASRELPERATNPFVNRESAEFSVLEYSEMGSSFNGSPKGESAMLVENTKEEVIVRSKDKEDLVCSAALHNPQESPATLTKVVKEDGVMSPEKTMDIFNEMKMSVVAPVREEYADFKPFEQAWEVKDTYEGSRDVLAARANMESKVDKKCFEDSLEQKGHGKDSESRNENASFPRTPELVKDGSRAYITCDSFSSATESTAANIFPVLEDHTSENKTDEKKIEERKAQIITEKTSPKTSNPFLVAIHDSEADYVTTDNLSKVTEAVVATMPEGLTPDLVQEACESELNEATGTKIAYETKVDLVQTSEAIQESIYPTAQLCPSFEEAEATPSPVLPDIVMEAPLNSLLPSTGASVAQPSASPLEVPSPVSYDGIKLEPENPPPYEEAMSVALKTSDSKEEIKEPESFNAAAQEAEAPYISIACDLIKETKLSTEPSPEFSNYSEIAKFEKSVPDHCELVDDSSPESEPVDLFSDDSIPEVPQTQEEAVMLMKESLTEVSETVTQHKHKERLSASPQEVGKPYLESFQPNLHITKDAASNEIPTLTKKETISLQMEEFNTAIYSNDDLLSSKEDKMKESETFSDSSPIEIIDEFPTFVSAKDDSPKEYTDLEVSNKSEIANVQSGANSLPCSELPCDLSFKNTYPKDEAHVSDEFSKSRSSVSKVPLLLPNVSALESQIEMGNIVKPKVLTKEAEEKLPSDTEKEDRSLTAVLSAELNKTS
The assay is described as above. The method, then:
as §1, §2

In assay [4] the target is T4, rat NogoA-623-640 (rat).
T4 construct: Free peptide used for preincubation with 11C7; also called immunogenic peptide
T4 peptide: SYDSIKLEPENPPPYEEA
In words: peptide competition of cell surface staining of living rat oligodendrocytes. On the procedure:
Immunocytochemistry: Optic nerve oligodendrocytes are prepared as described (Schwab, Caroni, 1988, Neuron). Three to five day-old cultures grown on poly-L-lysine coated coverslips are washed twice with PBS, fixed in 4% (w/v) paraformaldehyde (PFA), 5% (w/v) sucrose in PBS for 15 min at room temperature (RT) and non-specific binding is blocked with 10% (v/v) FCS. Cells were then incubated with mouse 11C7 (1:100). Secondary antibodies are goat-anti-mouse TRITC (Jackson ImmunoResearch Laboratories). For cell surface staining, two day-old rat optic nerve cultures are incubated with monoclonal antibody in medium for 25 min at RT. Secondary alkaline phosphatase conjugated antibodies (Milan Analytica, Lausanne) are used at 1:7,500 in 0.1 M maleic acid with 1% (w/v) blocking reagent (1 hr). The cultures are washed twice with maleic acid buffer, once with alkaline phosphatase buffer (0.1 M Tris-HCl pH 9.5, 0.1 M NaCl, 5 mM MgCl₂) and the staining is developed for 3 hrs at room temperature with 0.175 mg/ml BCIP (Sigma) and 0.338 mg/ml NBT (Sigma) in alkaline phosphatase buffer.
Cell surface staining is present on all major and small processes and on the cell body. Thus, the Nogo-A specific part of the molecule recognised by mouse 11C7 mAb is exposed to the extracellular space on the plasma membrane of oligodendrocytes.

The target in assay [5] is T5, Nogo-66 (rat, UniProt Q9JK11 1019-1083).
T5 construct: also called Nogo-66 fragment
T5 sequence: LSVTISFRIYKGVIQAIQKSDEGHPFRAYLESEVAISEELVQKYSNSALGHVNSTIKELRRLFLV
In words: ELISA, fragment coated on plate. The method, then: (§3) Greiner 96 well PS plates (#655161) are coated with 0.4-2 ug/ml Nogo protein fragments in PBS (100ul/well) covered and incubated 4 hours at room temperature. Plates are flicked and refilled with 200 ul/well blocking buffer (PBS+2% BSA), covered and incubated. 1 h at RT or overnight at 4° C., then washed 4 times with water and PBS. Different concentrations of mouse 11C7 mAb or 11C7 Fab are diluted in PBS+2% BSA (100 u/well), and incubated 2 h at RT or overnight at 4° C. Wash step is repeated and Goat anti-mouse IgG conjugated with horse radish peroxidase (HRP) at a dilution of 1:5000 (ICN #55550) in PBS/0.1% BSA/0.1% Nonidet 40 (100 uVwell) is added and incubated. 2h at RT or overnight at 4° C. and wash step is repeated. HRP reaction is started by adding 100 uvwell BM blue POD (Roche #1484281) and incubafed in the dark at RT for 15 minutes. H2SO4 50 ul/well 1 M is added to stop HRP substrate reaction and the optical density is determinated using a microplate reader (Packard Spectra Count) set to 450 nm.
On the technique in general: An ELISA detects its analyte on a solid surface through an enzyme-linked reagent.

Assay [6] concerns the target T6, rat NiG-D6 (rat, UniProt Q9JK11 763-975).
T6 construct: pET28 construct from bacteria
T6 sequence: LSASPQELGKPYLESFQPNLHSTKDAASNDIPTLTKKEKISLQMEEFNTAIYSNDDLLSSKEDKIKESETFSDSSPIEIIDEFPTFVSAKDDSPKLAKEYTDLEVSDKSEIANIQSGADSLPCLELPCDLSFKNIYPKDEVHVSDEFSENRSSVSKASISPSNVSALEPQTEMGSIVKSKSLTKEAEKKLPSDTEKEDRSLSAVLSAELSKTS
In words: ELISA, fragment coated on plate. On the procedure:
as §3

The target in assay [7] is T1, human NiG. In words: SPR (BIAcore 2000), NiG amine-coupled on CM5 chip, Fab injected. The method, then:
as §1, §2

B1: mouse 11C7 mAb (antibody, V domains shown)
VH: EVKLLESGGGLVQPGGSLKLSCVVSGFDFRRNWMSWVRQAPGKGLEWIGEINPDSSKINYTPSLKDKFIISRDNAKNTLYLQVSTVRSEDTALYYCVRPVWMYAMDYWGQGTSVTVSS
VL: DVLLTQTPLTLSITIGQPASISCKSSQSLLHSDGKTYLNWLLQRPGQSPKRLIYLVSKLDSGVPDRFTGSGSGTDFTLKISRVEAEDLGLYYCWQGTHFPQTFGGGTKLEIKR
notes: also called mouse 11C7-IgG1; mAb 11C7
Regarding B1, the Ka is 9.73e+09 M⁻¹ in assay [1], 2.25e+09 M⁻¹ in assay [2] and 5.2e+09 M⁻¹ in assay [3]. Moreover, the Kd – broadly, a measure of binding affinity in units of concentration – was determined as 0.103 nM in assay [1], 0.444 nM in assay [2] and 0.192 nM in assay [3]. For the same molecule, the koff (usually a measure of how fast the partners let go of each other) amounted to 4.6e-05 s⁻¹ in assay [1], 0.000389 s⁻¹ in assay [2] and 0.000106 s⁻¹ in assay [3]. Further, the results for the kon in assay [1], in assay [2] and in assay [3] were 448000 M⁻¹ s⁻¹, 876000 M⁻¹ s⁻¹ and 552000 M⁻¹ s⁻¹, respectively. For the same molecule, the binding result is recorded as “binds” in assay [4], “no binding (tested: 0.02 to 2.5 nM)” in assay [5] and “no binding (tested: 0.02 to 2.5 nM)” in assay [6].

B2: 11C7 Fab (Fab, V domains shown)
VH: EVKLLESGGGLVQPGGSLKLSCVVSGFDFRRNWMSWVRQAPGKGLEWIGEINPDSSKINYTPSLKDKFIISRDNAKNTLYLQVSTVRSEDTALYYCVRPVWMYAMDYWGQGTSVTVSS
VL: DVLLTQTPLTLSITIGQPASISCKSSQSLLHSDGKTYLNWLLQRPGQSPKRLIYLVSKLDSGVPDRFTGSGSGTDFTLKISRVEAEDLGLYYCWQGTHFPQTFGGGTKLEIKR
notes: also called 11C7 derived monovalent Fab fragment; Fab monovalent fragment
Turning to B2, the binding result in assay [5] is “no binding (tested: 0.025 to 25 nM)”. For the same molecule, the binding result in assay [6] is given as “no binding (tested: 0.025 to 25 nM)”. In assay [7], the Ka is 1.4e+08 M⁻¹; the affinity, expressed as Kd, was 7.14 nM; the off-rate (koff) is 0.000528 s⁻¹; the on-rate (kon) (as a rule, the second-order rate constant of association) amounted to 72900 M⁻¹ s⁻¹.
